Experimental findings from article PMC3431187 (Molecular cell, 2012) are described below.

Numbering of substitutions follows the chain as printed. No end group written: not given here. fluorescein = fluorescein label on the N-terminus, attached through a 6-aminohexanoyl (Ahx) spacer; Ahx = NCCCCCC(=O)O

To fix the notation:
T1: rhophilin 2-PDZ K576A/K579A (human, UniProt Q8IUC4 515-593, K576A | K579A)
T1 sequence (looked up): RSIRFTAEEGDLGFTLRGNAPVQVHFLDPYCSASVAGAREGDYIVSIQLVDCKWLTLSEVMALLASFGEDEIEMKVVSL

T2: rhophilin 2-PDZ K576E/K579E (human, UniProt Q8IUC4 515-593, K576E | K579E)
T2 sequence (looked up): T1 sequence (looked up) with A62E, A65E

B1: rhophilin 2-PDZ (PDZ domain of rhophilin-2), wild type (domain or fragment, human, UniProt Q8IUC4 515-593, looked up)
chain: T1 sequence (looked up) with A62K, A65K
B2: F-Ahx-EYLGLDVPV (N-fluorescein-labeled ErbB2 C-terminal peptide) (peptide)
peptide: {fluorescein-Ahx}-EYLGLDVPV

Assay [1] deals with tamalin-PDZ (PDZ domain of tamalin), wild type (mouse, UniProt Q9JJA9 100-186). In words: fluorescence polarisation. Background: Polarisation of emitted light reports the rotation of a fluorescent probe.
For assay [2], the target named is B2. Put plainly: fluorescence polarisation.
Assay [3] deals with other peptides (tested with rhophilin 2-PDZ, Table S4). Put plainly: fluorescence polarisation.
Assay [4] has as its target T1, rhophilin 2-PDZ K576A/K579A. Put plainly: pull-down.
Assay [5] deals with B1. In words: pull-down.
The target of assay [6] is T2, rhophilin 2-PDZ K576E/K579E. Put plainly: pull-down.
Assay [7] addresses B1. In words: fluorescence polarisation.

Chain of tamalin-PDZ (PDZ domain of tamalin), wild type (Q9JJA9 100-186): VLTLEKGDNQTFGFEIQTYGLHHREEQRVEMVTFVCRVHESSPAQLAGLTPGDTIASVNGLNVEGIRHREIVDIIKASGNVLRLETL

In the case of {fluorescein-Ahx}-IRDYTQSSSSL [F-Ahx-IRDYTQSSSSL (N-terminal-fluorescein-labeled mGluR5 C-terminal peptide)], the binding result in assay [1] is recorded as “binds”.

As to B1, in assay [2], the “fold increase in affinity with PM vesicles against without” value stood at 2 fold. Besides, the fold decrease in affinity with PM vesicles against without in assay [3] is below 1.8 fold. As for {GST}-EYLGLDVPV [GST-EYLGLDVPV (GST fusion of the C-terminal peptide of ErbB2)], the binding result in assay [4], in assay [5] and in assay [6] was “binds” each time. For B2, in assay [7], the binding result is on record as “binds”.
